Results as given in paper PMC3300031 (Nucleic Acids Research, 2011).
Positions count from the first letter of the chain named. Names and notes keep the numbering of the source.

Legend:
[1] = target: the molecule itself; test: SEC
[2] = target: the molecule itself; test: AUC + SEC

B1: Pf NurA ΔN26 dimeric interface mutant (first 26 residues deleted) (domain or fragment, Pyrococcus furiosus, UniProt Q8U1N8 27-451, looked up)
chain: EQIRNIINSWKPLPSPEKSSIYAVDGSRSVSRLSGTVIYFLSALAVGSGKQLRLSYANAIKSNYGTSDQIVRMQMETLENMLGYLAYRKLEGEKRAILMDGTLTGSLVRPPVYPEDIRSLNVMRALIGESDFENLLNEFLEKLRDHYRKVEEHLEKNGNYDSPILTDNVVEKLRKKYIDTKVIAYGSGKVKVKIPRKALGYSPRVIPIEVLESSRGKSVDELLQELDEEKVELYLGKDDIYDALHMTLSYIEYLYSIDKLLEVKNLAYIAKSFYTKTLARTLGVEIVDTALLDAVIRTLIGHEKEGYLEIEHAVVPPKWSFPDFLLSKFRNIEKLIDKGIHLAYVRFEQGDVIYMLQSTTNIEKILPLILHHKAGGYLRPLQLAHHGVKISYKEARHTLEALINALRNRDPALKIFVKYGRSPLE
- stoichiometry N [1]: 4

B2: Pyrococcus furiosus NurA (Pf NurA), wild type (enzyme, UniProt Q8U1N8 1-451, looked up)
chain: MRLLSKQSIERITKILLDELENVRENEQIRNIINSWKPLPSPEKSSIYAVDGSRSVSRLSGTVIYFLSALAVGSGKQLRLSYANAIKSNYGTSDQIVRMQMETLENMLGYLAYRKLEGEKRAILMDGTLTGSLVRPPVYPEDIRSLNVMRALIGESDFENLLNEFLEKLRDHYRKVEEHLEKNGNYDSPILTDNVVEKLRKKYIDTKVIAYGSGKVKVKIPRKALGYSPRVIPIEVLESSRGKSVDELLQELDEEKVELYLGKDDIYDALHMTLSYIEYLYSIDKLLEVKNLAYIAKSFYTKTLARTLGVEIVDTALLDAVIRTLIGHEKEGYLEIEHAVVPPKWSFPDFLLSKFRNIEKLIDKGIHLAYVRFEQGDVIYMLQSTTNIEKILPLILHHKAGGYLRPLQLAHHGVKISYKEARHTLEALINALRNRDPALKIFVKYGRSPLE
- stoichiometry N [2]: 2

B3: Pf NurA R11A/I12E/S60Y dimeric interface mutant (enzyme, Pyrococcus furiosus)
chain: B2 chain with R11A, I12E, S60Y
- stoichiometry N [1]: ~2
